Laboratory results from patent publication US20230015713A1.

Molecular target: recombinant human FcγRIIa (131H)-glutathione-S-transferase (human) (UniProt P12318)
Assay: AlphaScreen competition: the antibody inhibits binding of FcγRIIa (131H)-GST to biotinylated human IgG1 (m6)

Row | IC50 (read off the curve) [µM] | Substance
1 | 0.02 | romosozumab PARG (SEQ ID NO: 8) C-terminal variant (antibody)
2 | 0.1 | wild-type romosozumab (antibody)
